Measured values taken from publication PMC5803617 (Journal of Cachexia, Sarcopenia and Muscle, 2017).

Key:
[1] = biological target: MuRF1/telethonin complex co-expressed in yeast from pBridge::MuRF1/telethonin (rat) (UniProt Q91Z63); assay: yeast three-hybrid
[2] = biological target: GST-MuRF1/telethonin complexes, cross-linked (rat) (UniProt Q91Z63); assay: SPR
GST-MuRF1 = GST-MuRF1 (rat, UniProt Q91Z63 1-351); assay: SPR
Chain of GST-MuRF1 (Q91Z63 whole entry): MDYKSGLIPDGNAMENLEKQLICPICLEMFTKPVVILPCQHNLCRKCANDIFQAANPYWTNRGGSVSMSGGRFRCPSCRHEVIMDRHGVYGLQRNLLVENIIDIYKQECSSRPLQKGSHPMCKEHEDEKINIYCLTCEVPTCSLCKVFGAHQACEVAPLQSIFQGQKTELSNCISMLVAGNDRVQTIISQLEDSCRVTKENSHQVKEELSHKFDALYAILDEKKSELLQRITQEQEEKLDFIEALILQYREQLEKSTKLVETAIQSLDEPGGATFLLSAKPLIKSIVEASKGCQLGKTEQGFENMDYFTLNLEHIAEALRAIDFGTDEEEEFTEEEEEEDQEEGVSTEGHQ

Chain of MuRF1/telethonin complex co-expressed in yeast from pBridge::MuRF1/telethonin (rat) (Q91Z63 whole entry, looked up, one chain of several): as the sequence (Q91Z63 whole entry) above
Chain of UBE2E1 fused to the activation domain of GAL4 (P52482 whole entry, the tested form may be a part): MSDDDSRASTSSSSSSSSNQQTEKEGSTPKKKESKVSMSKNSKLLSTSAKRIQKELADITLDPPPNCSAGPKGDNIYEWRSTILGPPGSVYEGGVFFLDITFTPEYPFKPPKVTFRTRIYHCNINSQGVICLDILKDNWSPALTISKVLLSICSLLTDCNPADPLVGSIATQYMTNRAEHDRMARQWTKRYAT
Chain of UBE2E1, untagged recombinant (P52482 whole entry): as the sequence (P52482 whole entry, the tested form may be a part) above

| Molecule | percent positive clones [1] [%] | Kd [2] [nM] | ka of the E2G1 dimer (heterogeneous analyte model) (GST-MuRF1) [M⁻¹ s⁻¹] | ka of the E2G1 monomer (heterogeneous analyte model) (GST-MuRF1) [M⁻¹ s⁻¹] |
| --- | --- | --- | --- | --- |
| UBE2E1 fused to the activation domain of GAL4 (from UniProt P52482 1-193) (enzyme) | 93 | – | – | – |
| UBE2E1, untagged recombinant (from UniProt P52482 1-193) (enzyme) | – | 5 | – | – |
| UBE2G1, untagged recombinant (enzyme, human, UniProt P62253 1-170, looked up) MTELQSALLLRRQLAELNKNPVEGFSAGLIDDNDLYRWEVLIIGPPDTLYEGGVFKAHLTFPKDYPLRPPKMKFITEIWHPNVDKNGDVCISILHEPGEDKYGYEKPEERWLPIHTVETIMISVISMLADPNGDSPANVDAAKEWREDRNGEFKRKVARCVRKSQETAFE | 58 | – | ~300 | ~4000 |
